Test results as given in patent US20160075790A1 (Bristol-Myers Squibb, published 2016).
Residue numbers refer to the chain shown, from its start. Where “and” joins values, the source holds several entries; their conditions need not be identical. Identical values can stand only once.

T1: human CD40L, membrane-bound on cells (human, UniProt P29965 1-261)
T1 sequence: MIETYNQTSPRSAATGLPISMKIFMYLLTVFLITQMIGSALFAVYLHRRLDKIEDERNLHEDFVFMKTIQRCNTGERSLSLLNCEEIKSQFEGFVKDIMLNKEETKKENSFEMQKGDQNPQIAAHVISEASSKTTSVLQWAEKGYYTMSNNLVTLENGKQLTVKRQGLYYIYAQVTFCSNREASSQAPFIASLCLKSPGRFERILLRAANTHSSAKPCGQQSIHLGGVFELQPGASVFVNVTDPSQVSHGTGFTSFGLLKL

T2: human isoleucine zipper-CD40L (IZ-hCD40L) (human, UniProt P29965 113-261)
T2 sequence: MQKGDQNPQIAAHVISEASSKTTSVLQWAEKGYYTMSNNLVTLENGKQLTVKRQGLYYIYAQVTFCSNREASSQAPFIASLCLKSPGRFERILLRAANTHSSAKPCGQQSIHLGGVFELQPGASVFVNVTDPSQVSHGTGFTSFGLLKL

B1: BMS2h-116-1312 (other)
VL: DIQMTQSPSSLSASVGDRVTITCRASQPIGPDLLWYQQKPGKAPKLLIYQTSILRSGVPSRFSGSGSETDFTLTISNLQPEDLATYYCQQYWAFPVTFGKGTKVVIKR
B2: BMS2h-116-1313 (other)
VL: B1 VL with L83F, K100R
B3: BMS2h-719-2 (other)
VH: EVQLLESGGGLVQPGGSLRLSCAASGFTFKRYEMMWVRQAPGKGLEWVSSISSDGSFTYYADSVKGRFTISRDNSKNTLYLQMNSLRAEDTAVYYCAEPFTEFDYWGHGTLVTVSS
B4: BMS2h-719-225 (other)
VH: B3 VH with K30N, R31T, M35Q
B5: BMS2h-719-226 (other)
VH: B3 VH with K30N, R31K, V37A, K76R
B6: BMS2h-719-202 (other)
VH: B3 VH with R31K
B7: BMS2h-572-632 (other)
VH: EVQLLESGGGLVQPGGSLRLSCAASGFTFKWQLMGWVRQAPGKGLEWVSGIEGPGDVTYYADSVKGRFTISRDNSKNTLYLQMNSLRAEDTAVYYCVKVGKDSKSDYRGQGTLVTVSS
B8: BMS2h-572-14 (other)
VH: B7 VH with K30N, S75T, D102E, K104N
B9: BMS2h-572-11 (other)
VH: B7 VH with K30N, D102E, K104N, L113Q
B10: BMS2h-572-15 (other)
VH: B7 VH with Q3R, T28N, K30N, V37I, V97A, D102E, K104N
B11: BMS2h-572-634 (other)
VH: B7 VH with K30N, Q32E, V37A, K104R
B12: BMS2h-572-9 (other)
VH: B7 VH with K30N, V97A, D102E, K104N
B13: BMS2h-572-635 (other)
VH: B7 VH with K30N, Q32E, V37A
B14: BMS2h-572-6 (other)
VH: B7 VH with K30N, D102E, K104N
B15: BMS2h-572 (other)
VH: B7 VH with K30N, V97A, D102E, K104N, S105F

The binders below were run against T1, human CD40L, membrane-bound on cells (assay: cell-based or functional assay).

CHO-hCD40L-driven DC Activation IL-12 EC50 [nM] | CHO-hCD40L-driven Human B Cell Proliferation EC50 [nM] | T-B cell MLR EC50 [nM] | Binder
112 | 530 | 234 | B1
 |  | 258 | B2
196 | > 7000 |  | B3
176 |  |  | B4
812 |  |  | B5
79 |  |  | B6
241 |  |  | B7
882 | > 7000 |  | B8
 | > 7000 |  | B9
876 | > 7000 |  | B10
77 |  |  | B11
> 2000 |  |  | B12
52 |  |  | B13
 | > 7000 | > 7000 | B14

What follows are binders tested against T2, human isoleucine zipper-CD40L … (assay: cell-based or functional assay).

hIZCD40L-driven Human B Cell Proliferation EC50 | Binder
23 nM | B1
82 nM | B3
253 nM and 198 nM | B4
164 nM and 247 nM | B5
29 nM | B6
117 nM | B7
> 7000 nM | B15
134 nM | B8
140 nM | B9
168 nM | B10
31 nM | B11
324 nM and 243 nM | B12
29 nM | B13
208 nM | B14
